Consider one molecule from publication PMC2173848 (The Journal of Cell Biology, 2002).

The target in the test is T1, GST-Sec34p (S. cerevisiae, UniProt P40094 1-801).
T1 sequence (looked up): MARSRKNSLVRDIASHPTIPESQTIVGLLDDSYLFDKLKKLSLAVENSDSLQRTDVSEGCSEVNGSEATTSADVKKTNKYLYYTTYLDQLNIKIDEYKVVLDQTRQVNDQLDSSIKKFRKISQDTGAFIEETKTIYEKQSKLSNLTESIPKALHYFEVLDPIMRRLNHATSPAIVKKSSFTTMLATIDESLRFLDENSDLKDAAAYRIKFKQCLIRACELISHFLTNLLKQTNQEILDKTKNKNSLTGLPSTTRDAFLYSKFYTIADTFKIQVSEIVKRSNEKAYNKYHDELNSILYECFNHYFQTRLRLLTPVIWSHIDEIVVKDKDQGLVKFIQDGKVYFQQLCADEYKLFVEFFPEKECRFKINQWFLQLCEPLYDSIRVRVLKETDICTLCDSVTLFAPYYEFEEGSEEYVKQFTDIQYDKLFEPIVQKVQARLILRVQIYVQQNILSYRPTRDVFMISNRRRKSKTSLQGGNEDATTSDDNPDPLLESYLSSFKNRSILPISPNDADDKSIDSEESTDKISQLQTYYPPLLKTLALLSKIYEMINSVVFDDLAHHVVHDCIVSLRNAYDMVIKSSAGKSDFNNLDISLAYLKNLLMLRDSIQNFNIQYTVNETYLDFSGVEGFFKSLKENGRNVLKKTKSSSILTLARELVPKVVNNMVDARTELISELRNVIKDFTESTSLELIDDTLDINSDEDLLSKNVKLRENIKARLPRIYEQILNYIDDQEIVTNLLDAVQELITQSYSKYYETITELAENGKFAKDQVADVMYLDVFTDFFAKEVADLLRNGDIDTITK
Nature of the test: pull-down.

B1: Sec35p (natural protein, S. cerevisiae (endogenous in yeast), UniProt P53271 1-262, looked up)
chain: MDFLNDDELDLDLPVTAEISKELFATEIEKYRESETNGTDVDNFDVDRFLVQKNFHYLPLDSLIRDLSGLSQKMVQTLLEQIRSNYDDYLTFSNTYTDEENETLINLEKTQSDLQKFMTQLDHLIKDDISNTQEIIKDVLEYLKKLDEIYGSLRNHSQLTEALSLGKRLSKSLHEMCGIEPLEEEICSGLIEQLYKLITASRRILESCADSNSPYIHHLRNDYQDLLQEFQISLKILTEKCLENPSSLQNLSLTLVSIIKTA
As to B1, the “percent recovered on the beads” value was approximately 3%.
